Where “and” joins values, the source holds several entries; their conditions need not be identical. Equal entries are not always repeated.
Tests used:
[1] = molecular target: T1, β1-integrin chain on HT29 wt cells (α5-chain negative) (human, UniProt P05556 21-798); test: FACS on HT29 wt cells, labelled secondary antibody
T1 construct: whole, on cells; Negative cell control: β1 present at high density, α5 absent
Description: Affinity matured IgG antibodies were incubated at 10 μg/mL with 5×10⁵ HT29 wt and HT29α5 cells. Specifically bound antibodies were detected with a Cy3-labelled secondary antibody. Upper panel: IIA1 incubated with HT29 wt (left) or HT29α5-cells (right), lower panel: IgG1 MOR04974. The fluorescence shift indicates specific binding to α5 integrin and was found for MOR04975, MOR04977, MOR04985 and MOR04624 (grey area). Antibody isotype controls are negative (black lines (b)). Our anti-integrin antibodies bind to α5-chain transfected cells with the same specificity as the reference antibody IIA1.
Affinity matured antibodies of the IgG-format were tested for their binding specificity by FACS analysis on HT29 wt vs. HT29α5 cells. HT29 wt cells are α5-negative but do contain the β1-integrin chain. HT29α5 but not the HT29 wt cells are specifically recognized by the IgG1-anti-integrin antibodies and the reference antibody IIA1 as indicated by the fluorescence shift. (FIG. 12).

human α5β1 integrin = human α5β1 integrin (human, UniProt P08648 42-1049; P05556 21-798); test: cell-based or functional assay
Chain of human α5β1 integrin (P08648 42-1049, chain 1 of 2): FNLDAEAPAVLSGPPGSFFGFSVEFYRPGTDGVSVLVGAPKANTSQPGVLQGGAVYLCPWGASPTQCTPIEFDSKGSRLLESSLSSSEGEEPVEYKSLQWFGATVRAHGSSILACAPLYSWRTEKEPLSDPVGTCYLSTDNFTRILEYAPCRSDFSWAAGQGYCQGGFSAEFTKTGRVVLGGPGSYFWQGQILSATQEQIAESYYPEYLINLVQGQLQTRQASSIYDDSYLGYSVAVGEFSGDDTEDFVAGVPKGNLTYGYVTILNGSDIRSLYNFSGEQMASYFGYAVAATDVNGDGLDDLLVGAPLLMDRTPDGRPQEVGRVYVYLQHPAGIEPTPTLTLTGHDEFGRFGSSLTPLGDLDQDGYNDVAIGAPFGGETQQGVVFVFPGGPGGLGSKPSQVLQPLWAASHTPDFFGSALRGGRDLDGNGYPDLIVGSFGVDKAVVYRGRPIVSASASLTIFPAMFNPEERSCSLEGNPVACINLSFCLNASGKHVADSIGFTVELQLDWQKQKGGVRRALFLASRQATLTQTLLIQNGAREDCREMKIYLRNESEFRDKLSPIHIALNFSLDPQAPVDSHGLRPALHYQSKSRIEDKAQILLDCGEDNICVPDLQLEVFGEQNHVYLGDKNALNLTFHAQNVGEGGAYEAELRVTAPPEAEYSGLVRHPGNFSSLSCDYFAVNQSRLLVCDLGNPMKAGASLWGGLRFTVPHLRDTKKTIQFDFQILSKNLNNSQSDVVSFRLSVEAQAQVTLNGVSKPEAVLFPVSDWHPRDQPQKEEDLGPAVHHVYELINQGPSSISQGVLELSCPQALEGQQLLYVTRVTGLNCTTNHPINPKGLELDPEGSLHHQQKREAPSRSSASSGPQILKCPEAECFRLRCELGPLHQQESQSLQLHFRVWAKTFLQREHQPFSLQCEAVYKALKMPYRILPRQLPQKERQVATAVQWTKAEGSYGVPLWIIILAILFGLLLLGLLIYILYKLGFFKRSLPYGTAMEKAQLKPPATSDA
Chain of human α5β1 integrin (P05556 21-798, chain 2 of 2): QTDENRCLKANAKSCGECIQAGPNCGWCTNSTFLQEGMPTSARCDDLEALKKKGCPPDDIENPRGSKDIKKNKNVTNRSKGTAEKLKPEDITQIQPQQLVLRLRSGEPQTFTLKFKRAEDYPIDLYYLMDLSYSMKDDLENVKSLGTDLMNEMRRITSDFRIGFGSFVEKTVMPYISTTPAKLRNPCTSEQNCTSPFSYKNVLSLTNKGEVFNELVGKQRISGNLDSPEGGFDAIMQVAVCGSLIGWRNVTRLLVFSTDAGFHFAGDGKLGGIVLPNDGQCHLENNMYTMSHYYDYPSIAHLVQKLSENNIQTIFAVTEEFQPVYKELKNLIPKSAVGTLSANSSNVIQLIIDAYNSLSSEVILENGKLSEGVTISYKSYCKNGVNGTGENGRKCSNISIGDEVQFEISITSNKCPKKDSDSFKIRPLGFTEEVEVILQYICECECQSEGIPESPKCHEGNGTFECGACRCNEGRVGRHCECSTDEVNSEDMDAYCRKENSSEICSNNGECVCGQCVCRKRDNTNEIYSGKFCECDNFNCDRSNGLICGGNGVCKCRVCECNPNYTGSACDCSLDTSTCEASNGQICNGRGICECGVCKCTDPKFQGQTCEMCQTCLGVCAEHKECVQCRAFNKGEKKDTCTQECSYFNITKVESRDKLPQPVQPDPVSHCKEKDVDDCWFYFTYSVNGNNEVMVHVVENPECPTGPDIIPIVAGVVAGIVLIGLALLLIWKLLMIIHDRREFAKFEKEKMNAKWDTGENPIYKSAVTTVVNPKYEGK

T1 sequence (P05556 21-798): as the sequence (P05556 21-798, chain 2 of 2) above

B1: MOR04974 IgG1 (antibody, V domains shown)
VH: QVQLVESGGGLVQPGGSLRLSCAASGFTFSSYGMSWVRQAPGKGLEWVSGIRAKQSGYATDYAAPVKGRFTISRDNSKNTLYLQMNSLRAEDTAVYYCARGLGDYGHHHGLSGIFDYWGQGTLVTVSS
VL: DIQMTQSPSSLSASVGDRVTITCRASQGISSNLNWYQQKPGKAPKLLIYAASNLQSGPSRFSGSGSGTDFTLTISSLQPEDFATYYCQQYASPRQTFGQGTKVEIKR
notes: also called IgG1 MOR04974
For B1, the binding result [1] was “no binding (tested: 10 µg/mL)” and the “EC50, inhibition of HUVEC adhesion to fibronectin” value (human α5β1 integrin) was 0.4 µg/ml and 2.7 nM.

Source: patent US20090081207A1 (published 2009)
